Where two headings read alike, the source gives them in different places. Blank lines part the entries; values can stand above or below the molecule they belong to. Where no end group is shown, it is not given here. GST = glutathione S-transferase fusion tag
Experiments:
[1] = target: T1, FCHo1 µHD (residues 623 to 889) (Homo sapiens, UniProt O14526); assay: ITC of Eps15 fragments with the FCHo1 μHD; format: binding; conditions: for Kd / -TΔS / ΔG / ΔH: 25 °C; for Kd: 50 mM Tris-HCl pH 8.0, 50 mM NaCl, global fit of two runs; for Kd / -TΔS / ΔG / ΔH / N (binding ratio of Eps15 fragment to FCHo1 μHD): single-site model; for Kd / ΔH / N (binding ratio of Eps15 fragment to FCHo1 μHD): ± 68.3% confidence interval
T1 construct: GST (N, cleaved yes); made in house; host or cells: Escherichia coli (as for the SGIP1 μHD)
T1 sequence (O14526 623-889): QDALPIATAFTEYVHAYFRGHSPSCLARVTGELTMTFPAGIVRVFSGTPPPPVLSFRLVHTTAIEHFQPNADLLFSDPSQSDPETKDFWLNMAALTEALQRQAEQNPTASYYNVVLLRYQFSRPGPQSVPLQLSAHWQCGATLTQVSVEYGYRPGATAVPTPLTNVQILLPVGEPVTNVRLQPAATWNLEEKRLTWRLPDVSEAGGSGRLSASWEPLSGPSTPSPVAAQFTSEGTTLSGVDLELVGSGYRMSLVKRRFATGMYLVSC
Protocol: (§1) For the majority of the ITC experiments, the SGIP1 μHD, its mutants, or the FCHo1 μHD, in 50 mM Tris-HCl buffer (pH 8.0) containing 50 mM NaCl, was loaded in the sample cell, in a volume of 1.42 ml, and titrated with various Eps15-derived fragments or peptides in the same buffer, with an initial 5 μl injection and subsequent 10 μl injections, for a total of 25 injections. The titrations were performed while the samples were stirred at 310 r.p.m. at 25 °C. Each injection was followed by an interval of 4 min, to allow baseline stabilization. For the other ITC experiments indicated in Supplementary Table 2, the Eps15-derived fragments or peptides in the sample cell were titrated with the SGIP1 or FCHo1 μHD. All ITC experiments were performed on a VP-ITC microcalorimeter (MicroCal, LLC) and repeated twice, and the data were processed with the program NITPIC[42]. The two data sets from each ITC experiment were analyzed by global weighted least-squares fitting with the program SEDPHAT[43]. Figures for the ITC data were created with the program GUSSI (http://biophysics.swmed.edu/MBR/software.html). To obtain the values of the traditional stoichiometric parameter N in our ITC data analyses (Supplementary Table 2), we used the values of the parameters of the incompetent fractions of proteins and ligands. […] The values of the incompetent fractions are between 0 and 1, whereas the other parameter affecting the traditional parameter N, the number of sites, was fixed as 1 and 2, for the single- and two-site models, respectively. Thus, in the two-site model, the values of N for the first and second sites are identical in our ITC data analyses (Supplementary Table 2).

[2] = target: T2, SGIP1 μHD (residues 552 to 828) (Homo sapiens, UniProt Q9BQI5); assay: ITC of Eps15 fragments with the SGIP1 μHD; format: binding; conditions: for Kd: 50 mM Tris-HCl pH 8.0, 50 mM NaCl, global fit of two runs
T2 construct: the SGIP1 μHD (residues 552 to 828); GST (N, cleaved yes); made in house; host or cells: Escherichia coli BL21-Gold (DE3) or Rosetta2
T2 sequence (Q9BQI5 552-828): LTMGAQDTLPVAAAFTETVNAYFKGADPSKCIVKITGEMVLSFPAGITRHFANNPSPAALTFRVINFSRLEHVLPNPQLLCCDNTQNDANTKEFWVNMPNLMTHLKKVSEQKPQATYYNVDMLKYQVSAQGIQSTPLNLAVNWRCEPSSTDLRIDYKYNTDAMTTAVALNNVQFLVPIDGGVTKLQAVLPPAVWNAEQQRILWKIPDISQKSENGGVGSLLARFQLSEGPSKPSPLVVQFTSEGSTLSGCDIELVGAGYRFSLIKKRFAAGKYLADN
Protocol: as §1

[3] = target: α-adaptin appendage domain (residues 711 to 955); assay: ITC of Eps15 fragments with the α-adaptin appendage domain; format: binding, human
[4] = target: T3, SGIP1 µ homology domain (µHD), residues 552 to 828 (human, UniProt Q9BQI5-1 552-828); assay: ITC; µHD, µHD mutant or α-adaptin appendage domain in the sample cell, titrated with the Eps15 fragment or peptide; 50 mM Tris-HCl (pH 8.0), 50 mM NaCl, 25 °C; VP-ITC; two data sets fitted globally (NITPIC, SEDPHAT); single-site model; conditions: both partners purified
T3 construct: pGEX-6P-1 construct cut with 3C protease; also called SGIP1 µHD; human SGIP1 µHD (aa552–828); source: E. coli BL21-Gold (DE3) or Rosetta2, purified (Glutathione Sepharose 4B, 3C protease cleavage, Superdex 200)
T3 sequence (looked up): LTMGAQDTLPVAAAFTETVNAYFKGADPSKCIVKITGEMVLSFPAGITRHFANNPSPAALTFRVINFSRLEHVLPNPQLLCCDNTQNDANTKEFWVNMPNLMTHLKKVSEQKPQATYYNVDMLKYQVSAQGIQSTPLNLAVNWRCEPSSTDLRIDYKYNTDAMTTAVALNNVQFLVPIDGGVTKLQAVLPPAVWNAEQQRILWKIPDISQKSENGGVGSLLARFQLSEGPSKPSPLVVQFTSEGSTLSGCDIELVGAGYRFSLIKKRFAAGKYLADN

[5] = target: appendage domain of human α-adaptin, residues 711 to 955 (human) (UniProt O95782); assay: as above
[6] = target: T4, SGIP1 μ homology domain (residues 552 to 828) (human, UniProt Q9BQI5-1 552-828); assay: ITC; VP-ITC, 25 °C, 50 mM Tris-HCl pH 8.0, 50 mM NaCl; for the majority the μHD (SGIP1, its mutants or FCHo1) in the cell, titrated with Eps15 fragments or peptides, for others the reverse (Supplementary Table 2); repeated twice, global fit with SEDPHAT, single-site or two-site model; conditions: both partners purified
T4 construct: A SeMet-substituted form (E. coli B834(DE3)) was used only for the structure of the domain alone; also called SGIP1 μHD; μHD; source: E. coli BL21-Gold (DE3) or Rosetta2, purified (Glutathione Sepharose, 3C protease cleavage on the column, Superdex 200)
T4 sequence (looked up): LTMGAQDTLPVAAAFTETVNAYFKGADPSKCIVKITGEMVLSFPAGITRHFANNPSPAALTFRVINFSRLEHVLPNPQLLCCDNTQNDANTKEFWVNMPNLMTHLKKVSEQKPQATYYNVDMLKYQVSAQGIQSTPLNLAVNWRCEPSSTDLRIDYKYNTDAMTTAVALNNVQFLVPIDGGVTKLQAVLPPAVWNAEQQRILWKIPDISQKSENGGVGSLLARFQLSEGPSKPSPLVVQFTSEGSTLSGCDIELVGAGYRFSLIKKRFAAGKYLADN

[7] = target: T5, FCHo1 µ homology domain (µHD), residues 623 to 889 (human, UniProt O14526-1 623-889); assay: ITC; µHD, µHD mutant or α-adaptin appendage domain in the sample cell, titrated with the Eps15 fragment or peptide; 50 mM Tris-HCl (pH 8.0), 50 mM NaCl, 25 °C; VP-ITC; two data sets fitted globally (NITPIC, SEDPHAT); single-site model; conditions: both partners purified
T5 construct: also called FCHo1 µHD; human FCHo1 µHD (aa623–889); source: E. coli, expressed and purified in the same manner as the SGIP1 µHD
T5 sequence (looked up): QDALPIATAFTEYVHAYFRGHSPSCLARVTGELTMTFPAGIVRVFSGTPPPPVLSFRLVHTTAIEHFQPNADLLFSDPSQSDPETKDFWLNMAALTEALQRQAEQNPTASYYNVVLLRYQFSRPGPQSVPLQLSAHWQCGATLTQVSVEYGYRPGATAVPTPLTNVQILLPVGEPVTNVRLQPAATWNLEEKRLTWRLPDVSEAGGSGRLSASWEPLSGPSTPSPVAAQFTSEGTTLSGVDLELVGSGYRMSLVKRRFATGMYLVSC

[8] = FCHo1 μHD in cell titrated with fragment
[9] = fragment in cell titrated with μHD (Experiment 37a)
[10] = 25 °C, fragment in cell titrated with μHD, single-site model
[11] = 25 °C, fragment in cell titrated with μHD, two-site model, first site
[12] = 25 °C, fragment in cell titrated with μHD, two-site model, second site

Molecule: Eps15-618–654: Eps15 fragment, 37-residue region containing six consecutive DPF motifs; high-affinity binding site (DFFQSDPFVGSDPFKDDPFGKIDPFGGDPFKGSDPFA; UniProt P42566 618-654, looked up, fragment)
Kd for the FCHo1 μHD (in words) [1]: in the nanomolar range
Kd ([1]; Eps15 fragment in cell titrated with μHD (Experiment 37a)): 190 ± 90 nM
Kd [1, 8]: 270 ± 100 nM
-TΔS [1, 8]: 0.672 kcal/mol
ΔG [1, 8]: -8.966 kcal/mol
ΔH [1, 8]: -9.638 ± 0.381 kcal/mol
-TΔS [1, 9]: -1.572 kcal/mol
ΔG [1, 9]: -9.158 kcal/mol
ΔH [1, 9]: -7.586 ± 0.398 kcal/mol
N (binding ratio of Eps15 fragment to FCHo1 μHD) [1, 8]: 0.59 ± 0.02
N (binding ratio of Eps15 fragment to FCHo1 μHD) [1, 9]: 0.70 ± 0.03
Strength of affinity ([1]; human FCHo1 µHD (aa623–889), Supplementary Table 3, This study): high
Kd ([2]; 25 °C, Eps15 fragment in cell titrated with SGIP1 μHD, two-site model, second site, 68.3% confidence interval, read-out: Kd, second site): 55500 nM
Kd ([2]; 25 °C, Eps15 fragment in sample cell titrated with SGIP1 μHD, single-site model, ± 68.3% confidence interval, read-out: Kd): 420 ± 250 nM
-TΔS [2, 10]: 0.278 kcal/mol
ΔG [2, 10]: -8.704 kcal/mol
ΔH ([2]; 25 °C, fragment in cell titrated with μHD, single-site model, ± 68.3% confidence interval): -8.982 ± 0.639 kcal/mol
-TΔS [2, 11]: -2.345 kcal/mol
ΔG [2, 11]: -9.805 kcal/mol
ΔH ([2]; 25 °C, fragment in cell titrated with μHD, two-site model, first site, ± 68.3% confidence interval): -7.46 ± 0.168 kcal/mol
-TΔS, second site [2, 12]: 3.722 kcal/mol
ΔG, second site [2, 12]: -5.906 kcal/mol
ΔH, second site ([2]; 25 °C, fragment in cell titrated with μHD, two-site model, second site, 68.3% confidence interval): -9628 (< -6103) cal/mol
N (binding ratio of Eps15 fragment to μHD) ([2]; fragment in cell titrated with μHD, single-site model, ± 68.3% confidence interval): 0.81 ± 0.04
N (binding ratio of Eps15 fragment to μHD) ([2]; fragment in cell titrated with μHD, two-site model, first site (N identical for both sites), ± 68.3% confidence interval): 0.88 ± 0.02
N, second site ([2]; fragment in cell titrated with μHD, two-site model, second site (N identical for both sites), ± 68.3% confidence interval): 0.88 ± 0.02
Strength of affinity ([2]; human SGIP1 µHD (aa552–828), Supplementary Table 3, This study): high

Molecule: Eps15-661–720: Eps15 fragment spanning residues 661 to 720, 4 DPF motifs (QSTDPFATSSTDPFSAANNSSITSVETLKHNDPFAPGGTVVAASDSATDPFASVFGNESF; UniProt P42566 661-720, looked up, fragment)
Kd for the α-adaptin appendage domain (in words) [3]: in the nanomolar range
Kd ([3]; 25 °C, appendage domain titrated with Eps15 fragment, single-site model, global fit of two runs, ± 68.3% confidence interval): 270 ± 130 nM
-TΔS ([3]; 25 °C, single-site model): 5.961 kcal/mol
ΔG ([3]; 25 °C, single-site model): -8.97 kcal/mol
ΔH ([3]; 25 °C, single-site model, ± 68.3% confidence interval): -14.931 ± 1.892 kcal/mol

B3: Eps15-661–720 (domain or fragment)
chain: GPLGSYQSTDPFATSSTDPFSAANNSSITSVETLKHNDPFAPGGTVVAASDSATDPFASVFGNESF
Kd [5]: 270 nM
stoichiometry N [5]: 0.47

B4: Eps15-618–648 (domain or fragment, human, UniProt P42566-1 618-648, looked up)
chain: DFFQSDPFVGSDPFKDDPFGKIDPFGGDPFK
notes: source: E. coli, purified in the same manner as for the SGIP1 μHD
Kd [6]: ~400 nM

B6: Eps15-640–654 (peptide)
peptide: Ac-YDPFGGDPFKGSDPFA-NH2
notes: artificial N-terminal Tyr; source: synthetic peptide (Eurofins Genomics)
Kd [4]: 2900 nM
stoichiometry N [4]: 0.66
stoichiometry N [7]: 0.64

B7: Eps15-661–790 (domain or fragment)
chain: GPLGSYQSTDPFATSSTDPFSAANNSSITSVETLKHNDPFAPGGTVVAASDSATDPFASVFGNESFGGGFADFSTLSKVNNEDPFRSATSSSVSNVVITKNVFEETSVKSEDEPPALPPKIGTPTRPCPLPPGKRSW
Kd [5]: 690 nM
stoichiometry N [5]: 1.19

B8: Eps15-628–654 (peptide)
peptide: Ac-YSDPFKDDPFGKIDPFGGDPFKGSDPFA-NH2
notes: as for B6
stoichiometry N [4]: 0.67

More lines, now with the values ahead:

Kd [4]: 125000 nM
B1: Eps15-662–676 (peptide)
peptide: Ac-YSTDPFATSSTDPFSA-NH2
notes: as for B6

Kd [4]: 650 nM
stoichiometry N [4]: 0.92
B2: GST-Eps15-628–644 (domain or fragment, human)
chain: {GST}-SDPFKDDPFGKIDPFGG
notes: source: E. coli, purified (Glutathione Sepharose 4B, glutathione elution, Superdex 200); not shown: GST, N-terminal, kept

Kd [4]: 1000 nM
stoichiometry N [4]: 0.86
B5: GST-Eps15-628–654 (domain or fragment, human)
chain: {GST}-SDPFKDDPFGKIDPFGGDPFKGSDPFA
notes: as for B2
